Experimental findings from publication PMC3431237 are described below.

The target in data set [1] is T1, PbrR (Cupriavidus metallidurans CH34 (plasmid pMOL30)) (UniProt Q58AJ5).
T1 sequence: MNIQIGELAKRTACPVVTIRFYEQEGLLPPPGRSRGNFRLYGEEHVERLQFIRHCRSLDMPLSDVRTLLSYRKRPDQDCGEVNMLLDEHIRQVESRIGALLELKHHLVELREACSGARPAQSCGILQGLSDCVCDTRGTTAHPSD
The data set is described as follows: EMSA. Conditions: not given in material (gel retardation and DNase I protection as in cited refs 36 and 37).

The target in data set [2] is T1, PbrR (Cupriavidus metallidurans CH34 (plasmid pMOL30)). Briefly: DNase I footprinting. Conditions: not given in material (gel retardation and DNase I protection as in cited refs 36 and 37).

Turning to “GCGAATGGTCACCACCGGGCATGCGGTGCGCTTGGCAAGCTCGCCGATCTGGATATTCATGGCGTCGGATGGGAGATGTCTTGACTCTATAGTAACTAGAGGGTGTTAAATCGGCAACGCGAGATGAATACACACAAGGGGTTGCCATGAGCGAATGTGGCTCGAAGGGATGTGGCTGCGCTTCCGTTGCGACGCGCAACCCAGAACCGAGCACGGTTGGCGCGGGGCTGAAGCAGGCGCGCTACCGAATCGAAAACATGGACTGTCCGACCGAAGAGGCGCTGATTCGCGACAAGC (double strand) [PpbrA 296 bp PCR product]”, the binding entry in data set [1] and in data set [2] was “binds” each time.
